Article PMC9482650, “Quantitative fragmentomics allow affinity mapping of interactomes” (Nature Communications, 2022)

Tests used:
Assay in all cases: holdup assay
Parameters in all cases: key: below the threshold = too weak to quantify, mostly under pKd 3.1 to 4
Settings in all cases: plain residues with an end cap or a label only (N-terminal biotin on a linker: ado-ado)
[1] = molecular target: T1, SNTB1, Q13884
T1 sequence (Q13884 107-205, limits assumed, looked up): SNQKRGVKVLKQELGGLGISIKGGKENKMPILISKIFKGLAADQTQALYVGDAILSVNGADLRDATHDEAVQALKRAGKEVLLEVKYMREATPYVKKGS

[2] = molecular target: T2, DFNB31_1, Q9P202
T2 sequence (Q9P202 135-233, limits assumed, looked up): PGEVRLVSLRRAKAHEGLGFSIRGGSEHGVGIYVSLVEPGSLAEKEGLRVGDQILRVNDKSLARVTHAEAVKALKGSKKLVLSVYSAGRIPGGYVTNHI

[3] = molecular target: T3, HTRA3, P83110
T3 sequence (P83110 354-453, limits assumed, looked up): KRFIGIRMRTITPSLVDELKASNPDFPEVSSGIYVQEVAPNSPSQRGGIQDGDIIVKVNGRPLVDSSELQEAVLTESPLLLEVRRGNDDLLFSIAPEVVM

[4] = molecular target: T4, DFNB31_3, Q9P202
T4 sequence (Q9P202 811-907, limits assumed, looked up): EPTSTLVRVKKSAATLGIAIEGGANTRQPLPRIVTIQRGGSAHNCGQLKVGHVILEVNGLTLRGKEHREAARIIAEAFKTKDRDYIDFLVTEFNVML

[5] = molecular target: IL16_3, Q14005
IL16_3, Q14005, sequence (Q14005 1107-1207): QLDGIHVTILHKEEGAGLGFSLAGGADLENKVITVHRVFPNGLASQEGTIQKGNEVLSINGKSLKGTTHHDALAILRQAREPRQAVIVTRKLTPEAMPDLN

[6] = molecular target: NOS1, P29475
NOS1, P29475, sequence (P29475 9-101): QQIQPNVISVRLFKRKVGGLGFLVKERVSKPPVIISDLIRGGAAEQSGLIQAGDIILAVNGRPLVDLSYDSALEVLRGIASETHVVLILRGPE

[7] = molecular target: T5, LNX2_2, Q8N448
T5 sequence (Q8N448 334-432, limits assumed, looked up): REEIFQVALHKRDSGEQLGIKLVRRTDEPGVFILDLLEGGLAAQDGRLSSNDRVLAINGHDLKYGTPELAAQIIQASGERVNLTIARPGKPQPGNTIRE

[8] = molecular target: T6, APBA2_2, Q99767
T6 sequence (Q99767 654-744, limits assumed, looked up): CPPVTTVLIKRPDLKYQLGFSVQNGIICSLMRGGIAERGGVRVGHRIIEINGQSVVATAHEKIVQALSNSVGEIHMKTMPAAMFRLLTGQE

[9] = molecular target: T7, CARD11, Q9BXL7
T7 sequence (Q9BXL7 662-765, limits assumed, looked up): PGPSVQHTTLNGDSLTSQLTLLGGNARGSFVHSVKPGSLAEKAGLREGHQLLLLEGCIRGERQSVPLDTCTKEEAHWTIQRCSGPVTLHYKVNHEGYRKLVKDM

[10] = molecular target: FRMPD4, Q14CM0
FRMPD4, Q14CM0, sequence (Q14CM0 67-160): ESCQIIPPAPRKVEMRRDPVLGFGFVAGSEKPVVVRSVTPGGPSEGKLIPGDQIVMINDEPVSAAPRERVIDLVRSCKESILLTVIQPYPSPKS

[11] = molecular target: T8, RAPGEF6, Q8TEU7
T8 sequence (Q8TEU7 525-625, limits assumed, looked up): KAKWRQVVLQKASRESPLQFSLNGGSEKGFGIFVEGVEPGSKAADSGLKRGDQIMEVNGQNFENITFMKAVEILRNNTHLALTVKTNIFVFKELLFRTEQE

[12] = molecular target: Inadl_4, Q8NI35
Inadl_4, Q8NI35, sequence (Q8NI35 547-651): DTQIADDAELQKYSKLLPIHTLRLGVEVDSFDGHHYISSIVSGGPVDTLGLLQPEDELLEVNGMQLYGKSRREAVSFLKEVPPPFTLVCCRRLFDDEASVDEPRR

[13] = molecular target: SCRIB_1, Q14160
SCRIB_1, Q14160, sequence (Q14160 718-814): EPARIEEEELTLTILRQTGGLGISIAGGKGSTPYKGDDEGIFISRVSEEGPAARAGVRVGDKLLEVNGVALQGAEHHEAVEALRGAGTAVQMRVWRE

[14] = molecular target: PTPN3, P26045
PTPN3, P26045, sequence (P26045 505-587): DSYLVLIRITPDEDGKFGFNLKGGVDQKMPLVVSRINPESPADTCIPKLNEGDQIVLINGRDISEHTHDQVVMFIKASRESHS

[15] = molecular target: PICK1, Q9NRD5
PICK1, Q9NRD5, sequence (Q9NRD5 17-115): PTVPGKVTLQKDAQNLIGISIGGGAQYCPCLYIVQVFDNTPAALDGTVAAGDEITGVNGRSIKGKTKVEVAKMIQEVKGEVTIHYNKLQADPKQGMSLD

[16] = molecular target: Inadl_10, Q8NI35
Inadl_10, Q8NI35, sequence (Q8NI35 1673-1763): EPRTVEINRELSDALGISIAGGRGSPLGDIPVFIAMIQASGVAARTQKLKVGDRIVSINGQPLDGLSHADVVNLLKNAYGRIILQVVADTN

[17] = molecular target: GIPC2, Q8TF65
GIPC2, Q8TF65, sequence (Q8TF65 112-203): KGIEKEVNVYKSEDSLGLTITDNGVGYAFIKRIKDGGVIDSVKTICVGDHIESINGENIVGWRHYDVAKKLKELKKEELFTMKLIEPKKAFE

[18] = molecular target: T9, ARHGAP21, Q5T5U3
T9 sequence (Q5T5U3 45-169, limits assumed, looked up): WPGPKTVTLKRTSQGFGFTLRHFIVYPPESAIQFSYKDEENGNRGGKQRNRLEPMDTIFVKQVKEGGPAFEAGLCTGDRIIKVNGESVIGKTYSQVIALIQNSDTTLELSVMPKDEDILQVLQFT

[19] = molecular target: SNX27, Q96L92
[20] = molecular target: T10, MPDZ_12, O75970
T10 sequence (O75970 1857-1958, limits assumed, looked up): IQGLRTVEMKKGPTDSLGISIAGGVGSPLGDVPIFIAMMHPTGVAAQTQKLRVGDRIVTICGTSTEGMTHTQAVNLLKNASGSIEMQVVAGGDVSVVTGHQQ

[21] = molecular target: T11, SNTG1, Q9NSN8
T11 sequence (Q9NSN8 52-150, limits assumed, looked up): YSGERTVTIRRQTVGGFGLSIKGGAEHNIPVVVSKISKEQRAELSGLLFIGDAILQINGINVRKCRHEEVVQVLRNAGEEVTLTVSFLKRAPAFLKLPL

[22] = molecular target: T12, DFNB31_2, Q9P202
T12 sequence (Q9P202 274-371, limits assumed, looked up): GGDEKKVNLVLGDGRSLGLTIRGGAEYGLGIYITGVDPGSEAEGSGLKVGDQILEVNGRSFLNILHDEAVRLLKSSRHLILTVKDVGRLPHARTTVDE

[23] = molecular target: T13, TJP3_3, O95049
T13 sequence (O95049 375-456, limits assumed, looked up): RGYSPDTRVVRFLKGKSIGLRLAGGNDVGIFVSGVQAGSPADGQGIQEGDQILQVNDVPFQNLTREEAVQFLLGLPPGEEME

[24] = molecular target: NHERF4_2, Q86UT5
NHERF4_2, Q86UT5, sequence (Q86UT5 220-308): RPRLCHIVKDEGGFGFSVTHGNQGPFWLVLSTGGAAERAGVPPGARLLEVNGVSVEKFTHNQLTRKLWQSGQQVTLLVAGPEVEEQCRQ

[25] = molecular target: MAGI2_6, Q86UL8
MAGI2_6, Q86UL8, sequence (Q86UL8 1141-1229): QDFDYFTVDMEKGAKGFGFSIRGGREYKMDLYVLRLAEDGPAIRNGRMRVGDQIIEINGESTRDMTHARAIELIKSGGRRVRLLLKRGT

Binder	pKd [1]	pKd [2]	pKd [3]	pKd [4]	pKd [5]	pKd [6]	pKd [7]	pKd [8]	pKd [9]	pKd [10]	pKd [11]	pKd [12]	pKd [13]	pKd [14]	pKd [15]	pKd [16]	pKd [17]	pKd [18]	pKd [19]	pKd [20]	further results
PKRSFIESNV [TANC1, Q9C0D5]	5	3.83	below the threshold	below the threshold	below the threshold	below the threshold	below the threshold	below the threshold	below the threshold	below the threshold	below the threshold	below the threshold	5.2	4.57	4.14	below the threshold	3.83	3.85	5.51	below the threshold	pKd [21]: 4.95; pKd [22]: below the threshold; pKd [23]: below the threshold; pKd [24]: below the threshold; pKd [25]: 4.09
DDEDRLVIEI [ZNF831, Q5JPB2]	below the threshold	below the threshold	4	4.12	below the threshold	3.64	4.76	below the threshold	below the threshold	below the threshold	below the threshold	below the threshold	below the threshold	below the threshold	below the threshold	below the threshold	below the threshold	below the threshold	below the threshold	below the threshold	pKd [21]: below the threshold; pKd [22]: below the threshold; pKd [23]: below the threshold; pKd [24]: below the threshold; pKd [25]: below the threshold
QMNQTLPVQV [EPHB3, P54753]	below the threshold	3.51	below the threshold	below the threshold	below the threshold	4.18	5.12	below the threshold	below the threshold	below the threshold	below the threshold	below the threshold	below the threshold	3.97	4.35	below the threshold	below the threshold	4	3.86	3.53	pKd [21]: below the threshold; pKd [22]: below the threshold; pKd [23]: below the threshold; pKd [24]: 3.52; pKd [25]: below the threshold
IPLDGETEEL [MYOZ1, Q9NP98]	below the threshold	below the threshold	below the threshold	below the threshold	below the threshold	below the threshold	below the threshold	below the threshold	below the threshold	4.03	below the threshold	below the threshold	below the threshold	4.04	below the threshold	below the threshold	below the threshold	below the threshold	3.69	below the threshold	pKd [21]: below the threshold; pKd [22]: below the threshold; pKd [23]: below the threshold; pKd [24]: below the threshold; pKd [25]: below the threshold
RHGSCVETSL [TMEM151B, Q8IW70]	4.88	4.61	below the threshold	below the threshold	below the threshold	3.84	below the threshold	below the threshold	below the threshold	4.51	below the threshold	below the threshold	5.5	5	4.18	below the threshold	3.92	4.17	5.55	below the threshold	pKd [21]: 4.45; pKd [22]: below the threshold; pKd [23]: below the threshold; pKd [24]: below the threshold; pKd [25]: 4.16
